Assay results taken from paper PMC1201339.

B1: MR163/MR164 45 bp dsDNA (dsDNA)
DNA 1: TACATATGTACATGGGTACATATGTACATGGGTACATATGTACAT
DNA 2: ATGTACATATGTACCCATGTACATATGTACCCATGTACATATGTA

What was measured:
Experiment in all cases: filter binding
Cdc6-1 FL = biological target: T1, Cdc6-1 FL (Methanothermobacter thermautotrophicus, UniProt O27463 1-382)
T1 sequence: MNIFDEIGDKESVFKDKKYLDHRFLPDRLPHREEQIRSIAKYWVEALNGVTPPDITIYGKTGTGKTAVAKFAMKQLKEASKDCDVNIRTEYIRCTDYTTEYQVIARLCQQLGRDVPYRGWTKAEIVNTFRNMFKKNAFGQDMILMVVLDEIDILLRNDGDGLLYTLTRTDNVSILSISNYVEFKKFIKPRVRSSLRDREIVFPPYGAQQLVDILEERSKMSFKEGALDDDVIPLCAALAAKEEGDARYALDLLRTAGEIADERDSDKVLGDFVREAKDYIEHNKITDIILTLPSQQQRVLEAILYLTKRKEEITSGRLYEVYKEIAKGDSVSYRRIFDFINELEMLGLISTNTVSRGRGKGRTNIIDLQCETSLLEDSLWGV

Cdc6-2 FL = biological target: T2, Cdc6-2 FL (Methanothermobacter thermautotrophicus, UniProt O27636 1-379)
T2 sequence: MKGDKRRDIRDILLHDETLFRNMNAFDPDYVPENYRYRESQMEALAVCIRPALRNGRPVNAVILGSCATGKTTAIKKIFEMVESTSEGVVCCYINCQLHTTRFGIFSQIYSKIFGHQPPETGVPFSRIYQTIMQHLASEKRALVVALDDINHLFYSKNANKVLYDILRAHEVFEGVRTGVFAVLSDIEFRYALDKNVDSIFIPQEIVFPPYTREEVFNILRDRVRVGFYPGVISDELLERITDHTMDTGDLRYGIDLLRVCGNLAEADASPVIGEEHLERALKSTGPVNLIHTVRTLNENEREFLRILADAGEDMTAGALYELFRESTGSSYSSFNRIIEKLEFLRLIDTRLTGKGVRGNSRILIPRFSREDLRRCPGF

Cdc6-2 WH = biological target: T3, Cdc6-2 WH (Methanothermobacter thermautotrophicus, UniProt O27636 292-379)
T3 sequence: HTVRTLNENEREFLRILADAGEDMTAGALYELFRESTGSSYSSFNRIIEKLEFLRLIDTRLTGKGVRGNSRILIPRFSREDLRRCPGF

Cdc6-1 WH = biological target: T4, Cdc6-1 WH (Methanothermobacter thermautotrophicus, UniProt O27463 287-382)
T4 sequence: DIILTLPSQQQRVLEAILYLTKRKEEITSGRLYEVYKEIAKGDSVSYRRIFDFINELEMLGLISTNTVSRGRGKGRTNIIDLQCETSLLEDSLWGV

Row | Binder | binding result (Cdc6-1 FL) | binding result (Cdc6-2 FL) | binding result (Cdc6-2 WH) | binding result (Cdc6-1 WH)
1 | TACATATGTACATGGGTACATATGTACATGGGTACATATGTACAT (ssDNA) [MR163 45mer ssDNA] | no binding | binds | – | –
2 | B1 | – | binds | no binding | no binding
